Measured values from the nanobody polyreactivity screen of Harvey et al. (2022).

assay: yeast display, Sf9 membrane polyspecificity reagent, FACS + sequencing; frameworks hold sequencing errors
In short: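 Polyreactivity labels are assigned by the sorting gate from which each nanobody was recovered. The gates were low and high (top ~1%), set on anti-HA fluorescence for expression and streptavidin fluorescence for reagent binding. Before sorting, galactose-induced (36–48 hours) yeast display cells were stained for 1 hour at 4 °C with 10% biotinylated, detergent-solubilized Sf9 membrane reagent.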

Sequence | polyreactivity (PSR sort gate)
QVQLVESVGGLVQAGGSLRLICAASGYTFSRNAMGWYRPAPGKERELVAVISSGGSTYYADSVKGRFTISRDNAKNTVYLQMNSLKPEDTAVYYCNTGVYRYGYWYDYWGQGTQVTVSS | high polyreactivity
QVQLVESGGGLVQAGGSLRLSCAASGSTFSYAMGWYRQAPGKERELVAAITIGGRTSYADSVKGRFTISRDNAKNTVYLQMNSLKPEDTAVYYCAAEGYYPVYYYVYYGYDYWGQGTQVTVSS | low polyreactivity
QVQLVESGGGLLQAGGSLRLSCAASGSIFRRNAMGWYRQAPGKERELVAAITTRGSRTTYADSVKGRFTISRDNAKNTVYLQMNSLKPEDTAVYYCAARQHFSYSFHVAYDYWGQGTQVTVSS | high polyreactivity
QVQLVESGGGLVQAGGSLRLSCAASGRIFKYYAMGWYRQAPGKERELVAAITSGGSTYYADSVKGRFTISRDNAKNTVYLQMNSLKPEDTAVYYCNADGYLSYAFDYWGQGTQVTVSS | low polyreactivity
QVQIVESGGGLVQAGGSLRLSCAASGRIFGYNAMGWYRQAPGKERELVATITVGGGSTYYADSVKGRFTISRDNAKNTVYLQMNSLKPEDTAVYYCAADSGYQPVLHRGYYRFNYWGQGTQVTVSS | low polyreactivity
QVQLVESGGGLVQAGGSLRLSFAASGLTFYTNAMGWYRQAPGKETELVATITSGGRTSYADSVKGRFTISRDNAKNTVYLEMNRLKPEDTAVYYCADTTGWYGARYGYWGQGTQVTVSS | high polyreactivity
QDQLVEAGGGLVQAGGSLRLSCAASGFTFYPYAMGWYRQAPGKERELVAAISYSGDRTYYADSVKGRFTISRDNAKNTVYLQMNSLKPEDTAVYDCVSAVHPGKYYYWGQGTQVTESS | high polyreactivity
QDQLVESGGGLVQAGGSLRLSCAASGRTFDDYAMGWSRPAPGKERELVAAINSGGNTYYADSVKGRFTISRDNAKNTVYLQMNSLKREDTADYYCAAYYRDKLSGYNYWRQGTQVTVSS | high polyreactivity
QVQLVESGVGLVQAGGTLRLSCAASGRIFTINAMGWYRQAPGKEREFVAAISGSGGTTYYADSVKGRLTISRDNAKNTVYLQMNSLKPEDTAVYYCAVSQSWYWYYASDYWGQGTQVTVSS | low polyreactivity
QVQLVESGGGLVQAGGSLRLSCAASGSIFWYYGMGWYRQAPGKERELVAAISSGGSTNYADSVKVRFAISRDNAKNTVYLQMNSLKPEDTAVYYCAVRFTFPRYPASYSRYYYWGQGTQVTVSS | high polyreactivity
QVQLVESGGGIVQAGCSLRLSCAASGRIFGYYSMGWYRQAPGKDTELVAAISNGGSTHYADSVKGRFTISRDNAKNTVYLHMNSLKPEDSAVYYCAARWHYGYYAYYYWGQGTQVTVSS | high polyreactivity
QVQLVESGGGLVQAGGSLRLSCAASGRIFYRYTMGWYRQAPGKERELVAAITRSGSSTRYADSVKGRFTISRDYAKNTVYLQMNSLKPEDTAVYYCATRVTSRTSGFDYWGQGTQVTVSS | high polyreactivity
QVQLVESRGGLVQAGGSLLLSCAASGIIFRYYTMGWYRQAPGKERELVAAIERSGGNTYYADSVKGRFTISRDNAKNTVYLQMNSLKPEDTAVYYCAARYATWYFRRGRKTSDYDYWGQGTQVTVSS | high polyreactivity
QVQLVESGGGLVQAGGSLRLSCAASGSTFYWYAMGWYRQAPGKERELVAAISRSSGSTYYADSVKGRFTISRDNAKNSVYLQMNSLKPEDTAVYYCAADYYLRSFVWTAYDSWGQGTQVTVSS | high polyreactivity
QEQLQESGGGQVQAGGSLLLSCAASGNIIRYYYMGWYRQAPGKERELVAAITYGTSTNYADSVKGRFTISRDNAKNTVYLQMNSLKPEDTAVYYCAVVVNYGDPLDNWGQGTQVTVSS | high polyreactivity
QVQLVESGGGLVQAGGSLRLSWAASGRIFGRYAMGWYRQAPGKERELVAAISYSGGSTYYADSVKGRFTISRDNAKNTVYLQMNSLKPEDTAVFYCNRYPTYGRTSYVTYYYWGQGTQVTVSS | high polyreactivity
QVQLVESGGGLVQAGGSLRLSCAASGSIFYYNAMGWYRQAPGTERELVAAITSSGGSTYADSVKGRFTISRDNAKNTVYLQMNSLKPEDTAVYYCATVAHGLWSGSGYIYAYDYWGQGTQVTVSS | low polyreactivity
QVQLVESGGGLVQAGGSLRLSCAASGRIFRYYAMGWYRQAPGKERELVATISSSGGSTYYADSVKGRFTISRDNAKNTVYLQMNSLKPEDTAVYYCAADWYGYRQFHGYYWGQGTQVTVSS | high polyreactivity
QVQHVESGGCLDQAGGSLRLSCAASGIFRTNARGWYRTAPGKERELVAGISSGGGTNYADSVKGRFTISRDNAKNTVYLQMNSLKPEDTAVYSCAKERIYFYYWYVYSDLVYEYDYCGQGTQVTVSS | low polyreactivity
QVQLQESGGGLVLAGGSLRLSCSASGNNSVYGSMGWYRQAPGKEREFVATIDPGTNTNYADSVKDRFTISRDNAKNTVYLQMNSLKPEDTAVYYCAVEAGSDWPYRYWGQGTQVTVSS | low polyreactivity
QVQLVESGRGLVHAGGSLRLSCAASGFILGVNERGWYRQAPGKERELVAAISQGDGSKYYADSVKGRFTISRDNANNTVYLQMNSLKPEDTAVYYCNAELYRDLRGYDHWGQGTQVTVSS | low polyreactivity
QVQLVESGGGLVQAGGSLRLSCAASGFTFSSNAMGWYRQAPGKERELVADINWSGGRTYYADSVKGRFTISRDNAKYTVYLQMNSLKPEDTAVYYCAAVLSWRQYYREYDYWGQGTQVTVSS | high polyreactivity

Sequence | polyreactivity (PSR sort gate)
QVQLVESGGGLVQAGGSLRLSCAASGSIFDRNAMGWYRQAPGKERELVAAITSGGSTYYADSVKGRFTISRDNAKNTVYLQMNSLKAEDTAVYYCNADADPPVPLYYWGQGTQVTVSS | low polyreactivity
QVQRVESGGGLVQAGGRLRVSCAASGRTFYIYAMGWYRQAPGKERELVADITSGGSTYYADSVKGRFTISRDNAKNTVYLQMNCLKPEDTAVYYCNAGPHWFYRYGRYDYWGQGTQVTVSS | low polyreactivity
QVRHVESGGGLVQAGGSLRLSCAASGGIFTTYAVGWYREAPGKEWELVARINSRGGRTYYADSVKGRFTISRDNAKYTVYLQMISLKPEDTGVYYCAVRNPRYFNEYDYWGQGTQVTVSS | low polyreactivity
QVQLVESGGGLVQAGGSLRLSCAASGRIFHTYAMGWYRQAPGKEREFVAAIRWSGGSTYYADSVKGRFTISRDNAKNTVYLQMNSLKPEDTAVYYCAREQVRYYSWFGYWGQGTQVTVSS | high polyreactivity
QVQLVESGGGLVQAGGSLRLSCAASGRIFPFYDMGWYRQAPGKERELVAAITSGTGTYYADSVKGRFTISRDNAKNTVYLQIYSLKPEDTAVYYCNARRYLRGYWGQGTQVTVSS | low polyreactivity
QVQLEESGGGLVQAGGSLRLSCAASGRIFGGNAMGWYRQAPGKERELVAAINSSGGRTYYADSLKGRFTISRDNAKYTVYLQMNSLKTEDTAVYYCSARVVGNWYDYWGQGTQVTVSS | high polyreactivity
QVQLVESGGGLVQAGGSLRLSCAASGSTFKIYAMGWYRQAPGKERELVAAITRSGGSTYYADSVKGRFTISRDNAKNTVYLQMNSLKPEDTAVYYCAASRFTSYGIDYDYWGQGTQVTVSS | high polyreactivity
QVQLVESGGGLVQAGGSLRLSCAASGRIFYYNAMGWYRPAPGKERELVATITGSGGSTYYADSVKGRFTISRDNAKNTVYLQMNSLKPEDTAVYYCNATRWYYDFYKLDYWGQGTKVTVSS | low polyreactivity
QVQLVESGGGLVQAGGSLRLSCAASGFIFVPYALGWYRQAPGKERELVAAISSGGSTYYADSVKGRFTISRDNAKNTVYLQMNSLKPEDTAVYYCNTRYYLYQYRYDYWGQGTQVTVSS | low polyreactivity
QVQLVESGGGLVQAGGSLRLSCAASGSIFRTNAMGWYRPAPGKERELVAAITGSGGSTYYADSVKGRFTISRDNAKNTVYLQMNSLKPEDTAVYYCATPVNRERHAEDYWGQGTQVTVSS | low polyreactivity
QVQLVESAGGLVQARGSLRLSCAASGINFDWYTMGWYRKAPGKERELVAAISWRGGRTYYADSVKGRFTISRDNAKNTVYLQMNSLKPEDTAVYYCAAEAPVQPFYVFNTGIYELDYWGQGTQVTVSS | low polyreactivity
QVQLVESCGGLVQAGGSLRLSCAASGSTFVYYAMGWYRQAPGKERELVAAISSGGSTYYADSVKGRFTISRDNAKNTVFLQMNSLKPEDTAVYDCAAKFGWGYTTYYYCGQGTQVTVSS | high polyreactivity
QVQLVESGGGIVQAGGSLRLICAASGFTFGYYTMGWYRQAPGKEREFVAAISGSGTNTYYADSVKGRFTISRDYAKNTVYLQMNSLKPEYTAVYYCNARWSLVSSGFDGGYWGQGSQVTVSS | high polyreactivity
QVQHVESGGGLLQAGGSLRLICAAYGSTFGTYAMGWYRQAPGKERELVATISIGGITYYADSVKGRFTNSRDNAKYTVYLQMNSLKPEVTAVYYCAKDVTDATSRSDPSGDDYWGQGTQVTVSS | low polyreactivity
QVQLVESGGGLVQAGGSLRLSCAASGSILTAYAMGWYRQAPGKERELVAAISRGDITKYADSVKGRFTISRDNAKNTVYLQMNRLKPEDTAVYYCAARVPRYSDSTRGRADYYWGQGTQVTVSS | high polyreactivity
QVQLVESGGGLVQAGGSLRLSCADSGFIFSAHAMGGYSQAPGKDRELVAAISRTGGSTYYADSVKGRFTISRDNAKNTVYLQMNSLKPEETAGYYGAAYIRYGGLAYDSNYWGQGTQVTVSS | high polyreactivity
QVQLVESGGGLVQAGGSLRLSCAASGLTFYYYAMGWYRQSPGKEREFVAAISRSGGTTYYADSVKGRFTISRDNAKNTVYLQMNSLKPEDTAVYYCAKASRYWSLYYWGQGTQVTVSS | high polyreactivity
QVQLVESGGGLVQAGGRHRLICAATGITYKSNPMGWYIQAPGTETELVAAIARRASSTYYADSVKGRFTISRDNAKNTVYLHMNSLNPEDTAVYYCNAVLPVYRTNLDYWGQGTQVTVSS | high polyreactivity
QVQLVESGGGLVQAGGSLRLSCAASGFIFYPYAMAWYRQAPGKERELVAVITSGGRTYYADSVKGRFTISRDNAKNTVYLQMNSLKPEDTAVYYCAARYGRIHWKANWPEYGYWGQGTQVTVSS | low polyreactivity
QVQLVESGGGLVQAGGSLRLSCAASGYTFRFNAMGWYRQAPGKEREFVAAIDFGGAGTYYADSVKGRFTISRDNAKNTVYLQMNSLKPEVTAVYYCNARDGVTTEFDYWGQGTQVTVSS | low polyreactivity
QVQLVESGGGLVQAGGSLRLSCAASAFIFISYAMGLYRQAAGKERELVAAISSSGVSTYSADSVKGRFTISRDNAKNTVYLQMNSLKPEDTAVYYCAARQQVRLRQGPLYYYWGQGTQVTVSS | high polyreactivity
